Test [1] deals with T1, Mucin chimeraTIM-3 (human TIM-3 with the mucin domain substituted for mouse TIM-3) (human/mouse chimera).
T1 construct: expressed on HEK293F cells
The experiment in a line: flow cytometry, transfected HEK293F cells.

The target of test [2] is T2, human TIM-3 (human, UniProt Q8TDQ0 22-301).
T2 construct: endogenous on Daudi cells in the ADCC test; also called HAVCR2; hTIM-3
Kind of test: flow cytometry, Alexa-647 labeled antibody on human TIM-3 EoL-1 cells pre-bound with 10 ug/ml unlabeled competitor: anti-DNP (negative control).

In test [3] the target is T2, human TIM-3. The experiment in a line: flow cytometry, Alexa-647 labeled antibody on human TIM-3 EoL-1 cells pre-bound with 10 ug/ml unlabeled competitor: 644.

B1: antibody 644 (antibody, V domains shown)
VH: QVQLVESGGGLVKPGGSLRLSCAASGFTFSDYYMSWIRQAPGKGLEWVSFISSSGSIIYYADSVKGRFTISRDNAKNSLYLQMNSLRAEDTAVYYCARDGYSSSWYYYGMDVWGQGTTVTVSS
VL: not shown
notes: Hybridoma isotype IgG4; recombinant form has human IgG1 constant region and kappa chain, made in FUT8-/- CHO cells (defucosylated)
For the molecule B1, the binding result (in test [1]; with human TIM-3 [2]) was “binds” in each case.

B2: antibody 512 (antibody, V domains shown)
VH: QVQLVESGGGVVQPGRSLRLSCAASGFTFNSYGMHWVRQAPGKGLEWVAVIWYDGSNKYYGDSVKGRFTISRDNSKNTLYLQMNSLRAEDTAVYYCAIWFGEMFSEYFQHWGQGTLVTVSS
VL: AIQLTQSPSSLSASVGDRVTITCRASQGISSALAWYQQKPGKAPKLLIYDASSLESGVPSRFSGSGSGTDFTLTISSLQPEDFATYYCQQFNSYPLTFGGGTKVEIKR
notes: Hybridoma isotype IgG1; recombinant form has human IgG1 constant region and kappa chain, made in FUT8-/- CHO cells (defucosylated)
With B2, the binding result (in the test with human TIM-3 [3]; in test [1]) was “binds” in each case.

B3: antibody 4545 (antibody, V domains shown)
VH: QVQLQESGPGLVKPSETLSLTCTVSGGSFSRGGYYWNWIRQPPGKGLEWIGYIYYSGSTNYNPSLKSRVTISLDTSKNQFSLKLSSVTAADTAVYYCARDHYSSSWTFDYWGQGTLVTVSS
VL: EIVLTQSPATLSLSPGERATLSCRASQSVSSYLAWYQQKPGQAPRLLIYDASNRATGIPARFSGSGSGTDFTLTISSLEPEDFAVYYCQQRSNWPPTFGQGTKLEIK
notes: Hybridoma isotype IgG2; recombinant form has human IgG1 constant region and kappa chain, made in FUT8-/- CHO cells (defucosylated)
Consider B3, for which the binding result (in test [1]; with human TIM-3 [2]) was “binds” in each case.

B4: antibody 8213 (antibody, V domains shown)
VH: QVQLQQPGAELVKPGASVKLSCKASGYTFTSYWMHWVKQRPGQGLEWIGEINPSNGRTNYNEKFKTKATLTVDKSSSTAYMQLSSLTSEDSAVYYCAGGYYLYFDYWGQGTTLTVSS
VL: DILMTQSPSSMSVSLGDTVNITCHASQGIRINIGWLQQKPGKSFKGLIYHGTNLEDGVPSRFSGSGSGPDYSLTISSLESEDFADYYCVQYGQFPWTFGGGTKLEMK
notes: Hybridoma isotype mouse IgG2b; recombinant form has mouse IgG2a constant region and kappa chain, made in HEK293F cells
Take B4: the binding result (in test [1]; with human TIM-3 [2]) was “binds” each time.

Values taken from US20170088616A1 (Kyowa Kirin, published 2017).
